The results in this text go back to patent publication US20200239597A1, “AN ANTI-APOPTOTIC FUNCTION OF PKM2 AND INTRACELLULARLY EXPRESSED SCFV ANTIBODIES” (La Jolla Institute for Allergy and Immunology, priority 2017, published 2020).

For data set [1], the system named is 293T cells. Put plainly: Rescue of 293T cells from BimS-induced apoptosis (cell viability). Type of data set: cell-based, human. How it is done:
Human BimS cDNA was subcloned into a pShooter™ mammalian expression vector (pCMV/myc/cyto; Invitrogen), to allow the expression of BimS driven by a CMV promoter. […] 293T cells were then infected with the intrabody library and then transfected with 4 μg/ml BimS plasmid, using 10 l of Lipofectamine® 2000 transfection reagent (Thermo Fisher). After 24 h post-infection, the culture medium was replaced with fresh MEMc medium supplemented with 10% FBS and penicillin/streptomycin (Gibco-Invitrogen).
Cell viability was measured with a Countess™ Automated Cell Counter (Invitrogen) using trypan blue. For the clonogenic survival assay, 293T or MEFs cells were seeded in 6-well plates at 1×10^5 cells/well in a 2-ml volume, transfected with BimS cDNA and incubated for 24 h. Afterwards, the medium was replaced and the cells cultured for 3-4 days. Thereafter, the plates were rinsed with PBS and fixed and stained with a solution containing crystal violet (0.5% w/v) and glutaraldehyde (6% v/v) as described (Franken et al., 2006).

For data set [2], the target named is Bax (Homo sapiens, UniProt Q07812). Nature of the data set: In vitro Bax/cBid membrane permeabilization in liposomes or Xenopus egg mitochondrial outer membrane vesicles. It is filed as biochemical. The settings on record: recombinant scFv 5 added together with PKM2; not shown. The text has this: Because no cytoprotective effect was seen when PKM2 was stimulated with allosteric activator TEPP-46 alone, or when PKM2 was replaced with the constitutively active PKIM1 (FIG. 3), the present inventors conclude that increased pyruvate kinase activity per se was insufficient for the cell survival effect induced by IB5. To test whether IB5:PIKM2 complexes could affect pro-apoptotic Bcl-2 family proteins directly, the present inventors used their own previously well-validated in vitro systems that recapitulate Bcl-2 family protein function in membranes. Here, recombinant Bax and cleaved Bid (cBid) proteins are incubated with protein-free liposomes or with isolated Xenopus egg mitochondrial outer membrane vesicles. Bax then becomes inserted into the membranes and forms large pores that recapitulate MOMP as it occurs within cells (Gillies et al., 2015; Kuwana et al., 2002; Kuwana et al., 2016; Schafer et al., 2009). The present inventors observed no effect of adding recombinant scFv 5 and PKIVI2 to these systems (not shown). Thus, the inventors saw no evidence that PKM2 acts directly on the process of Bax/Bak-mediated MOMP.

The target of data set [3] is T1, PKM2 (K270M) (Homo sapiens, UniProt P14618, K270M).
T1 construct: His (N); made in house; host or cells: Escherichia coli BL21(DE3)
Put plainly: Pyruvate kinase assay, PKM2 (K270M). It is filed as biochemical. The following applies: high concentrations of scFv 5. How it is done: (§1) Activity was measured by Kinase-Glo® Plus Luminescent Kinase Assay kit (promega), using ADP and PEP as substrates), with PKM2 at 50 nM. Shown are values with the basal activity of PKM2 alone subtracted out.
(§2) Pyruvate kinase activity was measured by using Kinase-Glo® Plus Luminescent Kinase Assay kit (Promega). 50-100 nM of purified WT or mutant PKM2 was added in 100 μl assay buffer containing 50 mM Tris pH7.5, 100 mM KCl, 10 mM MgCl2, 200 μM PEP, 200 μM ADP, and 3% DMSO. After a 15-min incubation, Kinase-Glo Plus™ reagent (Promega Corporation, Madison, Wis., USA) was added, according to the manufacturer's instructions. In some cases, 0-40 μM fructose 1,6-bisphosphate (FBP) and 0-150 nM scFv 5 were added.

Data set [4] concerns endogenous PKM2, Bim EL and L isoforms. Put plainly: Expression of endogenous PKM2 and Bim isoforms in 293T cells. It is filed as cell-based, human.
Data set [5] concerns MDA-MB231-LM2. Put plainly: Clonogenic rescue from BimS-induced death, MDA-MB231-LM2. Type of data set: cell-based. The settings on record: lung metastatic derivative MDA-MB231-LM2. The method, then:
Control or IB5-expressing cells were transfected with BimS cDNA. The plates were fixed and stained with crystal violet after 12 days and the total areas of colonies were measured. Mean, SD and P values were calculated from 3 individual plates.

For data set [6], the system named is 293T cells. Put plainly: Protection from death induced by transient expression of tBid. Type of data set: cell-based, human. The following applies: surviving cells counted after 72 h. The method, then: FIG. 2B is a non-limiting graph representation of a transfection assay to assess the effect of IB5 in cells transfected with pro-apoptotic proteins BimS and tBid encoding cDNA. […] 293T cells were transfected treated with […] tBid or BimS cDNA. Surviving cells were counted after 72 h.

The test system of data set [7] is PKM2-deficient MEFs reconstituted with WT PKM2. Nature of the data set: Mitochondrial length by fluorescence microscopy (Tom20 staining). It is filed as cell-based, mouse. The following applies: PKM2-null MEFs reconstituted with WT PKM2. The source says: IB5 expression with WT PKM2 increased mitochondrial length, and PKM2 (K422R) expression increased mitochondrial length even in the absence of IB5. PKM2-deficient MEFs reconstituted with WT PKIM2 or PKM2(K422R) cDNA, were infected or not with IB5 lentivirus. […] Mitochondria were visualized by fluorescence microscopy after staining with Tom20 antibodies. Representative confocal images are shown.
Cells were analyzed 3 d after transfection with the indicated cDNA constructs (mean±s.e.m. of 3-5 experiments of 120-200 random selected cells.

Data set [8] has as its target T2, PKM2 (K422R) (Homo sapiens, UniProt P14618, K422R).
T2 construct: His; made in house; host or cells: Escherichia coli BL21(DE3) (stated generally for WT and mutant PKM2)
Nature of the data set: Pyruvate kinase assay, PKM2 (K422R). Type of data set: biochemical. How it is done:
as §1, §2

T2 sequence (P14618 whole entry K422R): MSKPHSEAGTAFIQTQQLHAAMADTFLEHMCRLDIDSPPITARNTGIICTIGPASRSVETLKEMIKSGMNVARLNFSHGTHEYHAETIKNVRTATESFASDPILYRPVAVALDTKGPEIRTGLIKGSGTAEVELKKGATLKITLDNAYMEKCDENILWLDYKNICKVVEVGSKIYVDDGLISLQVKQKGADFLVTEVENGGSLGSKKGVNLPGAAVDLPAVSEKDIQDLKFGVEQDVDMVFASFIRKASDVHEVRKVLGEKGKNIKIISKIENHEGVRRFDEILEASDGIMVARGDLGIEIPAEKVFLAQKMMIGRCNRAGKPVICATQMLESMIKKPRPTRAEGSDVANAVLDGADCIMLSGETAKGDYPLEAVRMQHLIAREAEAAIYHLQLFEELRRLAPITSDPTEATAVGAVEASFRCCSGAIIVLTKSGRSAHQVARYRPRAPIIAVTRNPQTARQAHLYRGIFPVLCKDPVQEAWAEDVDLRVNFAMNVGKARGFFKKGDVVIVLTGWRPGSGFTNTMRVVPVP
T1 sequence (P14618 whole entry K270M): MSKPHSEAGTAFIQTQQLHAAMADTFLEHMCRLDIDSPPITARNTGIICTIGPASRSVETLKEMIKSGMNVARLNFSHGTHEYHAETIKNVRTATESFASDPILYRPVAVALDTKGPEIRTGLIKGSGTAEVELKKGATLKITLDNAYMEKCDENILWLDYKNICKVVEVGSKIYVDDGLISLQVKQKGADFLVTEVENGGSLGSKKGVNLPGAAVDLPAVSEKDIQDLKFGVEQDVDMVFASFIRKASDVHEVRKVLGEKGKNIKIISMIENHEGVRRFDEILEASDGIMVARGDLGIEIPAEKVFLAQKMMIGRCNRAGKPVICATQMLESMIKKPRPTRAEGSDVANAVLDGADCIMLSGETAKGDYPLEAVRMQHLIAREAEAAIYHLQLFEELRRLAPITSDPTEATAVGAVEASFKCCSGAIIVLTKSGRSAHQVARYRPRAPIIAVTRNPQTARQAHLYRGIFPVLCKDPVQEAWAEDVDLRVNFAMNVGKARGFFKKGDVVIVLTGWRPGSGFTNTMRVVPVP
Sequence of Bax (Q07812 whole entry, species assumed): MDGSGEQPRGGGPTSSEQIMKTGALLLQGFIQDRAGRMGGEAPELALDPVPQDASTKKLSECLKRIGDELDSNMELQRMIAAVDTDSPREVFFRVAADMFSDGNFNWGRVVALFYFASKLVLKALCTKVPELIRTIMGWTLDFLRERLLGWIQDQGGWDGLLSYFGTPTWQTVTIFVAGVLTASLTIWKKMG

B1: IB5: intracellularly expressed single-chain antibody (scFv) specific for PKM2, SEQ ID NO: 2; also made as monovalent recombinant scFv in E. coli (protein)
scFv: MAQVQLVETGPGLVKPSETLSLRCTVSGGSFDNYYWNWIRQPPGKGLEYIGYVFPSTGATNYNPSLGSRVTISLDTSKNQFSLTLTSVTTADTAIYYCVRSGHDLWTGSTWFDPWGQWTTVTVSSGGGGSGGGGSGGGGSEIVLTQSPGTLSLSPGERATLSCRASQSVSSSYLAWYQQKPGQAPRLLIYGASSRATGIPDRFSGSGSGTDFTLTISRLEPEDIAVYYCQQRSNWPRTFGQGTKVEIKRGLGGLASVDYKDDDDK
modifications: artificial intrabody clone 5
notes: also made as monovalent recombinant scFv in E. coli
B1: the “percentage of 293T cells rescued from BimS-induced death” value in data set [1] (single intrabody expressed from lentivirus, BimS cDNA transfection) is reported as 15-20%. The “survival effect when expressed with a weaker promoter” value in data set [1] (weaker promoter, not shown) is on record as “reduced”. In addition, the “effect on Bax-mediated membrane pore formation (MOMP) in vitro” value in data set [2] is given as “no effect”. Also, the “catalytic activity of PKM2 (K270M)” value in data set [3] is given as “increased the catalytic activity”. In data set [4], the “expression of endogenous Bim EL and L isoforms” value is “no effect”; the “expression of endogenous PKM2” value is “no effect”. Also, in data set [5], the “rescue from BimS-induced cell death” value was “failed to rescue”. In addition, the “protection from death induced by transient expression of tBid” value in data set [6] is “protected from death”. The average mitochondrial length result in data set [7] was “increased the average mitochondrial length”. Besides, in data set [8], the “glycolytic activity of PKM2 (K422R)” value was “stimulated the glycolytic activity of PKM2 (K422R) in a concentration-dependent manner”. For the same molecule, the “activity of PKM2 (K422R) compared with WT PKM2” value in data set [8] (high concentrations of scFv 5) is reported as “at least equal to that of WT PKM2”.
